Target: T1, S1 monomer of SARS-CoV-2 Omicron (SARS-CoV-2, UniProt P0DTC2 16-685)
T1 construct: domain: S1
Assay: SPR (Carterra LSA, antibody amine-coupled to the chip, spike protein as analyte)

B1: 3-31 (Fc fusion)
chain: EVQLVESGGGLVQPGGSLRLSCAASGSTFSINAMGWFRQAPGKEREFVAGITSSGGYTNYADSVKGRFTISADNSKNTAYLQMNSLKPEDTAVYYCAADGVPEYSDYASGPVWGQGTLVTVSS
binding result: no binding

Source: patent US20230257448A1 (TWIST BIOSCIENCE, published 2023)
